Experimental data as given in EP4703474A1, “ANTI-LRRC15 ANTIBODY” (priority 2023, dated 2024).

Test system: Gastric carcinoma cell line Caki-1
Test: In vivo antitumor effect, Caki-1 subcutaneous transplant model
Details: 0.4 mg/kg, tail vein, on Day 21, female SCID mice
Description: The antitumor effects of the antibody-drug conjugates were evaluated by using animal models in which cells of a human tumor cell line had been transplanted into immunodeficient mice, or cells of a mouse tumor cell line had been transplanted into immunocompetent mice. 4 to 6 Week-old SCID mice (CB17/Icr-Prkdc[scid]/CrlCrlj, Jackson Laboratory Japan, Inc.), NSG mice (NOD.Cg-Prkdcscid Il2rgtm1Wjl/SzJ, Jackson Laboratory Japan, Inc.), or B6J mice (C57BL/6J, Jackson Laboratory Japan, Inc.) were habituated for 3 days or more under SPF conditions before experimental use. The mice were fed with sterilized solid feed and given sterilized tap water. The major and minor diameters of the transplanted tumors were measured twice a week with an electronic digital caliper (Mitutoyo Corporation), and the estimated tumor volume was calculated using the following formula. Estimated tumor volume (mm^3) = 1/2 × major diameter (mm) × [minor diameter (mm)]^2 All antibody-drug conjugates were diluted with ABS and administered into the tail vein at doses shown in each Example. In addition, ABS (vehicle) or control hIgG-PBD prepared in Reference Example 4 was administered as the control group, in a similar manner. 5 to 6 Mice were used per group in the experiment. To analyze the LRRC15 expression in mouse tumor models, immunohistochemical staining of LRRC15 was performed. […]

B1: H02L01-V1-PBD (conjugate)
heavy: EVQLVESGGGLVQPGGSLRLSCAASGFTFRDYYMAWVRQAPGKGLEWVSSIGFDESRTYYADSVKGRFTISRDDSKNTLYLQMNSLRAEDTAVYYCARHGVSKYSGDNWFAYWGQGTLVTVSSASTKGPSVFPLAPSSKSTSGGTAALGCLVKDYFPEPVTVSWNSGALTSGVHTFPAVLQSSGLYSLSSVVTVPSSSLGTQTYICNVNHKPSNTKVDKKVEPKSCDKTHTCPPCPAPEAAGGPSVFLFPPKPKDTLMISRTPEVTCVVVDVSHEDPEVKFNWYVDGVEVHNAKTKPREEQYNSTYRVVSVLTVLHQDWLNGKEYKCKVSNKALAAPIEKTISKAKGQPREPQVYTLPPSREEMTKNQVSLTCLVKGFYPSDIAVEWESNGQPENNYKTTPPVLDSDGSFFLYSKLTVDKSRWQQGNVFSCSVMHEALHNHYTQKSLSLSPGK
light: DIQMTQSPSSLSASVGDRVTITCKSSQGLLYSGDQKNYLAWYQQKPGKAPKLLIYWASTRQSGVPSRFSGSGSGTDFTLTISSLQPEDFATYYCQQYYDPPYTFGQGTKVEIKRTVAAPSVFIFPPSDEQLKSGTASVVCLLNNFYPREAKVQWKVDNALQSGNSQESVTEQDSKDSTYSLSSTLTLSKADYEKHKVYACEVTHQGLSSPVTKSFNRGEC
- antitumor effect (estimated tumor volume): antitumor activity higher than that of the vehicle and control hIgG-PBD
